Data from US20240050432A1 (Infinity Pharmaceuticals, Inc., priority 2020, published 2024).
Like-named read-outs stand apart in the source and are kept apart here.

What was measured:
[1] = tested on: advanced urothelial carcinoma; assay: Phase 2 randomized study of eganelisib + nivolumab vs nivolumab: response, PFS, OS; type: in vivo, human; settings: for Median PFS: preliminary PFS
Text: (§1) Methods: Eligible patients (pts) with mUC who progressed on >1 platinum-based chemotherapy regimen and were CPI naïve were enrolled. […] Pts were stratified by baseline circulating monocytic myeloid derived suppressor cells (mMDSC) level. The primary endpoint was objective response rate (ORR) per RECIST v1.1 in pts with high baseline mMDSC levels. Other endpoints included ORR, progression free survival (PFS) and overall survival (OS) in all pts, PD-L1+/−pts and pts with hepatic adverse events (AE).
Advanced platinum refractory 2nd line urothelial cancer patients: Inclusion/exclusion criteria per CheckMate-275; MDSC* all corners (stratified); PD-L1** status all corners (non-stratified). • * Circulating mMDSC levels measured in baseline peripheral blood samples based on a Clinical Laboratory Improvement Amendments (CLIA)-certified flow cytometry assay (low [<22.3%] or high [≥22.3%] or ≥/<the median MDSC level of patients in this trial) • ** PD-L1 expression measured in baseline/archival tumor biopsies with Dako PD-L1 immunohistochemical 28-8 pharmDx kit approved for nivolumab in UC, except 2 biopsies tested with 22C3 PD-L1 antibody prior to study (Tumor Proportion Score≥1% cutoff for PD-L1 (+)) • Primary objective: ORR in MDSC High • Secondary objectives: ORR, TTR, DOR, and PFS in total population+MDSC subsets; safety; PK • Exploratory objectives: safety and efficacy in biomarker subsets, including PD-L1; OS
(§2) The dose for nivolumab is 480 mg Q4W.

interferon alpha pathway = assay: Peripheral blood gene set enrichment, day 15 vs. day 0; type: in vivo, human
Text: (§3) In all patients (day 15 vs. day 0): interferon gamma pathway: ES=0.81, p<0.01 (combination, n=31) vs. ES=0.51, p=0.28 (nivolumab, n=14); interferon alpha pathway: ES=0.87, p<0.01 (combination, n=31) vs. ES=0.53, p=0.39 (nivolumab, n=14). In PD-L1 negative patients (day 15 vs. day 0): interferon gamma pathway: ES=0.82, p<0.01 (combination, n=21) vs. ES=0.55, p=0.15 (nivolumab, n=5); interferon alpha pathway: ES=0.88, p<0.01 (combination, n=21) vs. ES=0.53, p=0.35 (nivolumab, n=5).

interferon gamma pathway = assay: as above; type: in vivo, human
Text: as §3

[2] = tested on: metastatic urothelial carcinoma (mUC); settings: CheckMate-275, cited from earlier work
[3] = Phase 2 urothelial carcinoma study: adverse events; type: in vivo, human
Text: as §1, §2

[4] = snapshot Jun. 26, 2021, PD-L1 negative patients
[5] = snapshot Jun. 26, 2021, all patients
[6] = PD-L1 negative patients, n=21 vs n=5
[7] = preliminary analysis, N=33 vs N=16
[8] = preliminary analysis, N=33 vs N=16, 1 Grade 4
[9] = snapshot Jun. 26, 2021, N=33 vs N=16

nivolumab
overall survival probability at one year landmark [1, 4]: 17% | overall survival probability at one year landmark [1, 5]: 32% | gene set Enrichment Score (ES), interferon alpha pathway (interferon alpha pathway; [6]): 0.53 | gene set Enrichment Score (ES), interferon alpha pathway (interferon alpha pathway; all patients, n=31 vs n=14): 0.53 | gene set Enrichment Score (ES), interferon gamma pathway (interferon gamma pathway; [6]): 0.55 | gene set Enrichment Score (ES), interferon gamma pathway (interferon gamma pathway; all patients, n=31 vs n=14): 0.51 | Median OS (95% CI) ([2]; All (n = 270)): 8.6 (6.1-11.3) mo. | Median PFS (95% CI) ([2]; All (n = 270)): 1.9 (1.9, 2.3) mo. | ORR (95% CI) ([2]; All (n = 270)): 20 (16-26) % | Median OS (95% CI) ([2]; PD-L1 < 1% (n = 146)): 6.0 (4.4-8.1) mo. | Median PFS (95% CI) ([2]; PD-L1 < 1% (n = 146)): 1.9 (1.7, 2.0) mo. | ORR (95% CI) ([2]; PD-L1 < 1% (n = 146)): 16 (10-23) % | Median OS (95% CI) ([2]; PD-L1 ≥ 1% (n = 124)): 11.9 (9.1-19.1) mo. | Median PFS (95% CI) ([2]; PD-L1 ≥ 1% (n = 124)): 3.5 (1.9, 3.7) mo. | ORR (95% CI) ([2]; PD-L1 ≥ 1% (n = 124)): 26 (18-34) %

Nivolumab + Placebo: placebo with nivolumab (PN), active control arm
patients with reduction of tumor burden ([1]; PD-L1(−) patients, best change of target lesion): 17% | Median PFS ([1]; ITT): 8.5 wks | Median PFS ([1]; PD-L1(+)): 16.4 wks | Median PFS ([1]; PD-L1(−)): 7.9 wks | patients for whom durability of OS benefit continued to mature ([1]; snapshot Jun. 26, 2021): 18% | median OS (mOS) [1, 4]: 7.9 months | median OS (mOS) [1, 5]: 7.9 months | asthenia, all-Gr AE ([3]; first 49 pts (33 EN, 16 PN)): 31% | hepatotoxicity, Gr≥3 AE ([3]; first 49 pts (33 EN, 16 PN)): 0% | pruritis, all-Gr AE ([3]; first 49 pts (33 EN, 16 PN)): 6% | pyrexia, all-Gr AE ([3]; first 49 pts (33 EN, 16 PN)): 0% | rash, Gr≥3 AE ([3]; first 49 pts (33 EN, 16 PN)): 0% | rash, all-Gr AE ([3]; first 49 pts (33 EN, 16 PN)): 6% | transaminase elevation, Gr≥3 AE ([3]; first 49 pts (33 EN, 16 PN)): 6% | transaminase elevation, all-Gr AE ([3]; first 49 pts (33 EN, 16 PN)): 6% | Aspartate aminotransferase increased, Grade≥3 TEAE, Related to Eganelisib (Placebo in control arm) [3, 7]: 0 n (%) | Aspartate aminotransferase increased, Grade≥3 TEAE, Related to Nivolumab [3, 7]: 0 n (%) | Asthenia, TEAE, All Causality [3, 7]: 4 (25.0) n (%) | Asthenia, TEAE, Related to Eganelisib (Placebo in control arm) [3, 7]: 2 (12.5) n (%) | Asthenia, TEAE, Related to Nivolumab [3, 7]: 1 (6.3) n (%) | Decreased appetite, TEAE, All Causality [3, 7]: 4 (25.0) n (%) | Decreased appetite, TEAE, Related to Eganelisib (Placebo in control arm) [3, 7]: 1 (6.3) n (%) | Decreased appetite, TEAE, Related to Nivolumab [3, 7]: 0 n (%) | Disease progression, Grade≥3 TEAE, All Causality [3, 7]: 6 (37.5) n (%) | Disease progression, Grade≥3 TEAE, Related to Eganelisib (Placebo in control arm) [3, 7]: 0 n (%) | Disease progression, Grade≥3 TEAE, Related to Nivolumab [3, 7]: 0 n (%) | Disease progression, TEAE, All Causality [3, 7]: 6 (37.5) n (%) | Disease progression, TEAE, Related to Eganelisib (Placebo in control arm) [3, 7]: 0 n (%) | Disease progression, TEAE, Related to Nivolumab [3, 7]: 0 n (%) | Hepatotoxicity, Grade≥3 TEAE, Related to Eganelisib (Placebo in control arm) [3, 7]: 0 n (%) | Hepatotoxicity, Grade≥3 TEAE, Related to Nivolumab [3, 7]: 0 n (%) | Pruritus, TEAE, All Causality [3, 7]: 1 (6.3) n (%) | Pruritus, TEAE, Related to Eganelisib (Placebo in control arm) [3, 7]: 0 n (%) | Pruritus, TEAE, Related to Nivolumab [3, 7]: 0 n (%) | Pyrexia, TEAE, All Causality [3, 7]: 0 n (%) | Pyrexia, TEAE, Related to Eganelisib (Placebo in control arm) [3, 7]: 0 n (%) | Pyrexia, TEAE, Related to Nivolumab [3, 7]: 0 n (%) | Rash, TEAE, All Causality [3, 7]: 1 (6.3) n (%) | Rash, TEAE, Related to Eganelisib (Placebo in control arm) [3, 7]: 0 n (%) | Rash, TEAE, Related to Nivolumab [3, 7]: 0 n (%) | Aspartate aminotransferase increased, Grade≥3 TEAE, All Causality [3, 8]: 1 (6.3) n (%) | Hepatotoxicity, Grade≥3 TEAE, All Causality [3, 8]: 0 n (%) | Anemia, Grade≥3 TEAE, All Causality [3, 9]: 1 (6.3) n (%) | Anemia, Grade≥3 TEAE, Related to Eganelisib (Placebo in control arm) [3, 9]: 0 n (%) | Anemia, Grade≥3 TEAE, Related to Nivolumab [3, 9]: 0 n (%) | Aspartate aminotransferase increased, Grade≥3 TEAE, All Causality [3, 9]: 1 (6.3) n (%) | Aspartate aminotransferase increased, Grade≥3 TEAE, Related to Eganelisib (Placebo in control arm) [3, 9]: 1 (6.3) n (%) | Aspartate aminotransferase increased, Grade≥3 TEAE, Related to Nivolumab [3, 9]: 1 (6.3) n (%) | Asthenia, TEAE, All Causality [3, 9]: 5 (31.3) n (%) | Asthenia, TEAE, Related to Eganelisib (Placebo in control arm) [3, 9]: 2 (12.5) n (%) | Asthenia, TEAE, Related to Nivolumab [3, 9]: 1 (6.3) n (%) | Decreased appetite, TEAE, All Causality [3, 9]: 5 (31.3) n (%) | Decreased appetite, TEAE, Related to Eganelisib (Placebo in control arm) [3, 9]: 1 (6.3) n (%) | Decreased appetite, TEAE, Related to Nivolumab [3, 9]: 0 n (%) | Disease progression, Grade≥3 TEAE, All Causality [3, 9]: 4 (25.0) n (%) | Disease progression, Grade≥3 TEAE, Related to Eganelisib (Placebo in control arm) [3, 9]: 0 n (%) | Disease progression, Grade≥3 TEAE, Related to Nivolumab [3, 9]: 0 n (%) | Disease progression, TEAE, All Causality [3, 9]: 4 (25.0) n (%) | Disease progression, TEAE, Related to Eganelisib (Placebo in control arm) [3, 9]: 0 n (%) | Disease progression, TEAE, Related to Nivolumab [3, 9]: 0 n (%) | Hepatotoxicity, Grade≥3 TEAE, All Causality [3, 9]: 0 n (%) | Hepatotoxicity, Grade≥3 TEAE, Related to Eganelisib (Placebo in control arm) [3, 9]: 0 n (%) | Hepatotoxicity, Grade≥3 TEAE, Related to Nivolumab [3, 9]: 0 n (%) | Pruritus, TEAE, All Causality [3, 9]: 1 (6.3) n (%) | Pruritus, TEAE, Related to Eganelisib (Placebo in control arm) [3, 9]: 0 n (%) | Pruritus, TEAE, Related to Nivolumab [3, 9]: 0 n (%) | Pyrexia, TEAE, All Causality [3, 9]: 0 n (%) | Pyrexia, TEAE, Related to Eganelisib (Placebo in control arm) [3, 9]: 0 n (%) | Pyrexia, TEAE, Related to Nivolumab [3, 9]: 0 n (%) | Rash, TEAE, All Causality [3, 9]: 1 (6.3) n (%) | Rash, TEAE, Related to Eganelisib (Placebo in control arm) [3, 9]: 0 n (%) | Rash, TEAE, Related to Nivolumab [3, 9]: 0 n (%) | Discontinued treatment: Adverse event, unrelated to treatment ([3]; snapshot Jun. 26, 2021, of discontinued patients): 0 n
